Laboratory results from paper PMC2191090 (The Journal of Experimental Medicine, 1993).
Where no end group is shown, it is not given here. The star is where a group is joined. Biotin = O=C1N[C@H]2[C@H](CS[C@H]2CCCCC(=O)*)N1; 22‑Å spacer = not defined here

What was measured:
surface-expressed HLA-DR = test: Specificity of peptide binding to surface-expressed HLA-DR; design: species or system human; conditions: amino-terminal biotin via 22-A spacer
[1] = molecular target: HLA-DR7 (DRB1*0701) on Mann cells (human (endogenous in Mann)); test: flow cytometry on cells
[2] = molecular target: HLA-DR4 (DRB1*0401) on Priess cells (human (endogenous in Priess)); test: flow cytometry on cells
[3] = molecular target: HLA-DR2 (DRB1*1501/DRB5*0101) on MST cells (human (endogenous in MST)); test: flow cytometry on cells
[4] = molecular target: HLA-DR1 (DRB1*0101) on LG-2 cells (human (endogenous in LG-2)); test: flow cytometry on cells
[5] = molecular target: HLA-DR3 (DRB1*0301) on WT-20 cells (human (endogenous in WT-20)); test: flow cytometry on cells
[6] = molecular target: HLA-DR8 (DRB1*0801) on 23.1 cells (human (endogenous in 23.1)); test: flow cytometry on cells

| Molecule | effect of biotinylation on binding (in words) (surface-expressed HLA-DR) | relative mean log fluorescence [1] | relative mean log fluorescence [2] | relative mean log fluorescence [3] | relative mean log fluorescence [4] | relative mean log fluorescence [5] | relative mean log fluorescence [6] |
| --- | --- | --- | --- | --- | --- | --- | --- |
| VGSDWRFLRGYHQYA [HLA-A2-1ike peptide 103-117] | interfered with the normal mode of binding |  |  |  |  |  |  |
| biotinylated synthetic Ig kappa chain C region peptide 188-202 |  | 171 | 189 |  |  |  |  |
| {Biotin-22‑Å spacer}-LPKPPKPVSKMRMATPLLMQALPM (reading uncertain) [biotinylated synthetic invariant chain (Ii) peptide 97-120] |  | 288 | 215 |  |  |  |  |
| {Biotin-22‑Å spacer}-APSPLPETTENVVCALG (reading uncertain) [biotinylated synthetic HLA-DR alpha chain peptide 182-198] |  |  | 189 | 148 | 345 | 176 | 172 |
